Source: patent US20230236179A1

Columns and labels:
[1] = target: human interleukin-1 beta (IL-1β) protein standard (R&D Systems 201-LB-005) (human) (UniProt P01584); experiment: conventional Simoa sandwich (capture beads + detector m2), 150 pM SβG/5 min; IL-1B at 25 fM
[2] = target: human interleukin-1 beta (IL-1β) protein standard (R&D Systems 201-LB-005) (human) (UniProt P01584); experiment: conventional Simoa sandwich (capture beads + detector m2), 150 pM SβG/5 min; IL-1B at 100 fM
[3] = target: human interleukin-1 beta (IL-1β) protein standard (R&D Systems 201-LB-005) (human) (UniProt P01584); experiment: conventional Simoa sandwich (capture beads + detector m2), 300 pM SβG/15 min; IL-1B at 25 fM
[4] = target: human interleukin-1 beta (IL-1β) protein standard (R&D Systems 201-LB-005) (human) (UniProt P01584); experiment: dSimoa sandwich (capture beads + detector m2), 300 pM streptavidin-DNA/15 min; IL-1B at 1 fM
[5] = target: human interleukin-1 beta (IL-1β) protein standard (R&D Systems 201-LB-005) (human) (UniProt P01584); experiment: conventional Simoa sandwich (capture beads + detector m2), 300 pM SβG/15 min; IL-1B at 100 fM
[6] = target: human interleukin-1 beta (IL-1β) protein standard (R&D Systems 201-LB-005) (human) (UniProt P01584); experiment: dSimoa sandwich (capture beads + detector m2), 300 pM streptavidin-DNA/15 min; IL-1B at 10 fM
[7] = target: human interleukin-1 beta (IL-1β) protein standard (R&D Systems 201-LB-005) (human) (UniProt P01584); experiment: conventional Simoa sandwich (capture beads + detector m2), 150 pM SβG/5 min; IL-1B at 0.098 fM
[8] = target: human interleukin-1 beta (IL-1β) protein standard (R&D Systems 201-LB-005) (human) (UniProt P01584); experiment: conventional Simoa sandwich (capture beads + detector m2), 150 pM SβG/5 min; IL-1B at 0.391 fM
[9] = target: human interleukin-1 beta (IL-1β) protein standard (R&D Systems 201-LB-005) (human) (UniProt P01584); experiment: conventional Simoa sandwich (capture beads + detector m2), 150 pM SβG/5 min; IL-1B at 1.563 fM
[10] = target: human interleukin-1 beta (IL-1β) protein standard (R&D Systems 201-LB-005) (human) (UniProt P01584); experiment: conventional Simoa sandwich (capture beads + detector m2), 300 pM SβG/15 min; IL-1B at 6.25 fM
[11] = target: human interleukin-1 beta (IL-1β) protein standard (R&D Systems 201-LB-005) (human) (UniProt P01584); experiment: dSimoa sandwich (capture beads + detector m2), 300 pM streptavidin-DNA/15 min; IL-1B at 0.1 fM
[12] = target: human interleukin-1 beta (IL-1β) protein standard (R&D Systems 201-LB-005) (human) (UniProt P01584); experiment: dSimoa sandwich (capture beads + detector m2), 300 pM streptavidin-DNA/15 min; IL-1B at 0.5 fM
[13] = target: human interleukin-1 beta (IL-1β) protein standard (R&D Systems 201-LB-005) (human) (UniProt P01584); experiment: dSimoa sandwich (capture beads + detector m2), 300 pM streptavidin-DNA/15 min; IL-1B at 100 fM
[14] = target: human interleukin-1 beta (IL-1β) protein standard (R&D Systems 201-LB-005) (human) (UniProt P01584); experiment: conventional Simoa sandwich (capture beads + detector m2), 300 pM SβG/15 min; IL-1B at 0.024 fM
[15] = target: human interleukin-1 beta (IL-1β) protein standard (R&D Systems 201-LB-005) (human) (UniProt P01584); experiment: conventional Simoa sandwich (capture beads + detector m2), 300 pM SβG/15 min; IL-1B at 0.098 fM
[16] = target: human interleukin-1 beta (IL-1β) protein standard (R&D Systems 201-LB-005) (human) (UniProt P01584); experiment: conventional Simoa sandwich (capture beads + detector m2), 300 pM SβG/15 min; IL-1B at 0.391 fM
[17] = target: human interleukin-1 beta (IL-1β) protein standard (R&D Systems 201-LB-005) (human) (UniProt P01584); experiment: conventional Simoa sandwich (capture beads + detector m2), 300 pM SβG/15 min; IL-1B at 1.563 fM
[18] = target: human interleukin-1 beta (IL-1β) protein standard (R&D Systems 201-LB-005) (human) (UniProt P01584); experiment: dSimoa sandwich (capture beads + detector m2), 300 pM streptavidin-DNA/15 min; IL-1B at 0.01 fM
[19] = target: human interleukin-1 beta (IL-1β) protein standard (R&D Systems 201-LB-005) (human) (UniProt P01584); experiment: dSimoa sandwich (capture beads + detector m2), 300 pM streptavidin-DNA/15 min; IL-1B at 0.05 fM

UniProt P01584, sequence (P01584 117-269 limits assumed): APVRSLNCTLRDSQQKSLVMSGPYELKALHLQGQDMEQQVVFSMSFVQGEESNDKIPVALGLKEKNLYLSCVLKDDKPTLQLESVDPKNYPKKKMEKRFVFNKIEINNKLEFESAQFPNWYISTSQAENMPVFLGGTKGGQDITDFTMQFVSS

average AEB [1]: 0.199 AEB | average AEB [2]: 0.721 AEB | average AEB [3]: 0.221 AEB | average AMB [4]: 0.0133 AMB | average AEB [5]: 0.767 AEB | average AMB [6]: 0.0898 AMB | average AEB [7]: 0.0108 AEB | average AEB [8]: 0.0135 AEB | average AEB [9]: 0.0222 AEB | average AEB [10]: 0.0714 AEB | average AMB [11]: 0.0051 AMB | average AMB [12]: 0.0114 AMB | average AMB [13]: 0.822 AMB | average AEB [14]: 0.0428 AEB | average AEB [15]: 0.0271 AEB | average AEB [16]: 0.029 AEB | average AEB [17]: 0.0379 AEB | average AMB [18]: 0.0044 AMB | average AMB [19]: 0.0054 AMB
Substance: IL-1β capture antibody (Biolegend 508202)
